Reference: patent US5985836A, “Alpha-1 proteinase inhibitor binding peptides” (Bayer Corporation, priority 1998, dated 1999)
One block for each substance: values may come before it. Ends that are not written are not given here.

What was measured:
Immunoglobulin G (IgG) = experiment: Purification from Effluent II+III, IgG mass balance; type: binding, human; conditions: 1 ml Eff. II+III, 4° C.
Protocol: (§1) Sequences 1-11 and 15 were assayed with Effluent II+III (Eff. II+III). Eff. II+III is a process intermediate in the Cohn plasma fractionation process. The feed stream contains 20% (by volume) ethanol, 20-25 mg/ml hSA and approximately 1 mg/ml AlPI. The stream also contains other proteins including anti-thrombin III (AT3), immunoglobin G (IgG), immunoglobin A (IgA), apolipoprotein alpha-1 (Apo A-1), transferrin (Trf), haptoglobin (Hpt), and alpha-1 acid glycoprotein (AAG) at concentrations ranging from 0.1-1 mg/ml.
(§2) The columns were assayed using the same technique as the hSA+AlPI experiments, allowing for a 10 minute residence time followed by a constant flow rate of 865 μl/min with step elutions of 1M NaCl, 3M NaCl, and 2% acetic acid. All experiments were conducted at 4° C. The mass balances for the injection of 1 ml Eff. […] The AlPI was enriched from 3% of the total protein in the feed to upwards of 50% in the acid eluate.

Immunoglobulin A (IgA) = experiment: Purification from Effluent II+III, IgA mass balance; type: binding, human; conditions: 1 ml Eff. II+III, 4° C.
Protocol: as §1, §2

A1PI [1] = target: T1, A1PI (Homo sapiens, UniProt P01009); experiment: A1PI purification from 5 mg hSA + 1 mg A1PI on peptide column, A1PI mass balance; type: binding; conditions: for Mass AlPI Eluted in Acid Eluate: nephelometry; for Mass Protein per Eluate Fraction, 1M NaCl / Mass Protein per Eluate Fraction, 2% Ac. Acid / Mass Protein per Eluate Fraction, Flow / Percent Eluted by Fraction, 1M NaCl / Percent Eluted by Fraction, 2% Ac. Acid / Percent Eluted by Fraction, 3M NaCl / Percent Eluted by Fraction, Flow / Mass Protein per Eluate Fraction, 3M NaCl: A1PI, 5 mg hSA + 1 mg A1PI; for Mass Protein per Eluate Fraction, 1M NaCl / Mass Protein per Eluate Fraction, 2% Ac. Acid / Mass Protein per Eluate Fraction, Flow / Mass Protein per Eluate Fraction, 3M NaCl: * Below detection limit; for Percent Eluted by Fraction, 1M NaCl / Percent Eluted by Fraction, 2% Ac. Acid / Percent Eluted by Fraction, 3M NaCl / Percent Eluted by Fraction, Flow: relative to total eluted
T1 construct: Human plasma is currently the only approved source of therapeutic AlPI
Protocol: Confirmatory binding assays were performed in a column chromatographic format on a microbore HPLC using individual peptide sequences synthesized directly onto the Toyopearl 650 M Chelate resin which had been modified with Totda followed by an alanine residue (A-Totda-Toyopearl), at a final substitution density of 0.1 mmole/g resin. The resin was packed into 0.4×5 cm columns (Thomson, Springfield, Va.) and tested on the Michrom HPLC system (Michrom BioResources, Auburn, Calif.). The elution program for all trials utilized the following method. The column was pre-equilibrated with equilibration buffer (as above). 1 ml of sample was injected and allowed sufficient time to flowthrough the column using equilibration buffer. The column was then washed with step elutions of 1M NaCl and 3M NaCl in equilibration buffer. The column was exposed to equilibration buffer with 0.1M NaCl. Any remaining protein was eluted with elution buffer (2% by volume glacial acetic acid in water).
A Gilson FC204 fraction collector at the HPLC outlet collected individual eluates for further analysis. Fractions collected from the 2% acetic acid eluates were neutralized with 2M Tris, pH 10.5 to bring the pH to neutrality. The protein samples were reconstituted in equilibration buffer unless otherwise stated. The samples were analyzed by the integration of the absorbance at 280 nm or by immunonephelometry. The specific method of determination is presented for each figure.
Columns were assayed with a mixture of 5 mg human serum albumin (hSA)+1 mg AlPI at 4° C. (Table 4, Seq. ID 1-11, 15, 17) and 20° C. (Table 5, Seq. ID 1-10, 13, 15, 17). The chromatography method was modified to provide for a 10 minute residence time of sample in the column by decreasing the flow to 17 μl/min (10 cm/hr) upon injection. Following the incubation, the flow was set at 865 μl/min (413 cm/hr) for the step elutions of 1M NaCl, 3M NaCl, and 2% acetic acid. The mass balances presented are based upon immunonephelometry. The Percent Eluted value is protein-specific and based on the amount of the protein eluted in a […]

A1PI [2] = target: T1, A1PI; experiment: Purification of A1PI from Effluent II+III on peptide column, A1PI mass balance; type: binding; conditions: A1PI, 1 ml Eff. II+III, 4° C.; for Mass Protein per Eluate Fraction, 1M NaCl / Mass Protein per Eluate Fraction, 2% Acetic Acid / Mass Protein per Eluate Fraction, Flow: * as in Tables 4, 5 (below detection limit)
Protocol: as §1, §2

A1PI [3] = target: T1, A1PI; experiment: A1PI binding on peptide-resin column, injection of 1 mg A1PI in equilibration buffer; conditions: 1 mg A1PI in equilibration buffer; for Percent A1PI Eluted by Fraction Based on Absorbance at 280 nm, 1M NaCl / Percent A1PI Eluted by Fraction Based on Absorbance at 280 nm, 2% Acetic Acid / Percent A1PI Eluted by Fraction Based on Absorbance at 280 nm, Flowthrough: 4° C.; for Percent A1PI Eluted by Fraction, 1M NaCl / Percent A1PI Eluted by Fraction, 2% Acetic Acid / Percent A1PI Eluted by Fraction, Flowthrough: 20° C.
How it was run: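 Percent of total eluted A1PI per fraction (flowthrough, NaCl steps, 2% acetic acid) determined by A280 integration or immunonephelometry. Columns of peptide-derivatized A-Totda-Toyopearl resin (0.1 mmole/g) received 1 mg A1PI at 4 °C or 20 °C, flow 865 or 523 μl/min.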

[4] = target: T2, apolipoprotein alpha-1 (Apo A-1) (Homo sapiens, UniProt P02647); experiment: Purification from Effluent II+III, Apo A-1 mass balance; type: binding; conditions: 1 ml Eff. II+III, 4° C.; for Mass Protein per Eluate Fraction, 2% Acetic Acid: * as in Tables 4, 5 (below detection limit)
T2 construct: Eff; II+III is a process intermediate in the Cohn plasma fractionation process; tissue Bayer Corporation (Clayton, N.C.); host or cells: plasma fraction: Cohn Effluent II+III
Protocol: as §1, §2

[5] = * as in Tables 4, 5 (below detection limit)

T2 sequence (P02647 19-267): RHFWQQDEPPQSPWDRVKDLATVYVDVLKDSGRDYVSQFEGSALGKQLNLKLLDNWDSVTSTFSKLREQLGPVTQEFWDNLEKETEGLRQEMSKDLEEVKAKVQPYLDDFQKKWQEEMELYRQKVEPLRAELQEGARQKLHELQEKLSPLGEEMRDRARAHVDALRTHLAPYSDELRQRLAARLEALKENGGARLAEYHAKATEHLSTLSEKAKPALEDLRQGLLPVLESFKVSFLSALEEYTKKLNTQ
T1 sequence (P01009 25-418): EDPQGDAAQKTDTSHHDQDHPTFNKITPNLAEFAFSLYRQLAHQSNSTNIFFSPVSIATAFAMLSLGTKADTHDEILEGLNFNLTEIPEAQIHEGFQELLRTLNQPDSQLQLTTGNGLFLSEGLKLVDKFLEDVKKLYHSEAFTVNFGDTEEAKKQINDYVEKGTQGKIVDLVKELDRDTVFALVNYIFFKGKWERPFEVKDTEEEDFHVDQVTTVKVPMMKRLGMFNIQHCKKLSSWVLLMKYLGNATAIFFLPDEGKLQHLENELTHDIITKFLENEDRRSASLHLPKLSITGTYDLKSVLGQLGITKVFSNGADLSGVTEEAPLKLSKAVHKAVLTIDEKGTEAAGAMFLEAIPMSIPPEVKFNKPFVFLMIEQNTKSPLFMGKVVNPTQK

Mass AlPI Eluted in Acid Eluate (A1PI [1]; 250 μg AlPI injected with 5 mg hSA, 20° C.): 0.07 mg
Mass AlPI Eluted in Acid Eluate (A1PI [1]; 500 μg AlPI injected with 5 mg hSA, 20° C.): 0.15 mg
Mass AlPI Eluted in Acid Eluate (A1PI [1]; 1000 μg AlPI injected with 5 mg hSA, 20° C.): 0.39 mg
Mass Protein per Eluate Fraction, 1M NaCl (A1PI [1]; 4° C.): 0.50 mg
Mass Protein per Eluate Fraction, 2% Ac. Acid (A1PI [1]; 4° C.): 0.11 mg
Mass Protein per Eluate Fraction, Flow (A1PI [1]; 4° C.): 0.01 mg
Percent Eluted by Fraction, 1M NaCl (A1PI [1]; 4° C.): 80%
Percent Eluted by Fraction, 2% Ac. Acid (A1PI [1]; 4° C.): 18%
Percent Eluted by Fraction, 3M NaCl (A1PI [1]; 4° C.): 0%
Percent Eluted by Fraction, Flow (A1PI [1]; 4° C.): 2%
Mass Protein per Eluate Fraction, 1M NaCl (A1PI [1]; 20° C.): 0.42 mg
Mass Protein per Eluate Fraction, 2% Ac. Acid (A1PI [1]; 20° C.): 0.45 mg
Mass Protein per Eluate Fraction, 3M NaCl (A1PI [1]; 20° C.): 0.00 mg
Percent Eluted by Fraction, 1M NaCl (A1PI [1]; 20° C.): 48%
Percent Eluted by Fraction, 2% Ac. Acid (A1PI [1]; 20° C.): 52%
Percent Eluted by Fraction, 3M NaCl (A1PI [1]; 20° C.): 0%
Percent Eluted by Fraction, Flow (A1PI [1]; 20° C.): 0%
Percent Eluted by Fraction, 1M NaCl (A1PI [2]): 22%
Percent Eluted by Fraction, 2% Acetic Acid (A1PI [2]): 14%
Percent Eluted by Fraction, 3M NaCl (A1PI [2]): 0%
Percent Eluted by Fraction, Flow (A1PI [2]): 64%
Mass Protein per Eluate Fraction, 1M NaCl (A1PI [2]): 0.20 mg
Mass Protein per Eluate Fraction, 2% Acetic Acid (A1PI [2]): 0.13 mg
Mass Protein per Eluate Fraction, Flow (A1PI [2]): 0.59 mg
Percent A1PI Eluted by Fraction Based on Absorbance at 280 nm, 1M NaCl (A1PI [3]): 88%
Percent A1PI Eluted by Fraction Based on Absorbance at 280 nm, 2% Acetic Acid (A1PI [3]): 12%
Percent A1PI Eluted by Fraction Based on Absorbance at 280 nm, Flowthrough (A1PI [3]): 0%
Percent A1PI Eluted by Fraction, 1M NaCl (A1PI [3]): 88%
Percent A1PI Eluted by Fraction, 2% Acetic Acid (A1PI [3]): 12%
Percent A1PI Eluted by Fraction, Flowthrough (A1PI [3]): 0%
Percent Eluted by Fraction, 1M NaCl [4]: 0%
Percent Eluted by Fraction, 2% Acetic Acid [4]: 100%
Percent Eluted by Fraction, 3M NaCl [4]: 0%
Percent Eluted by Fraction, Flow [4]: 0%
Mass Protein per Eluate Fraction, 2% Acetic Acid [4]: 0.35 mg
Substance: RLWRYG
Percent Eluted by Fraction, 1M NaCl (Immunoglobulin G (IgG)): 0%
Percent Eluted by Fraction, 2% Acetic Acid (Immunoglobulin G (IgG)): 0%
Percent Eluted by Fraction, 3M NaCl (Immunoglobulin G (IgG)): 0%
Percent Eluted by Fraction, Flow (Immunoglobulin G (IgG)): 100%
Mass Protein per Eluate Fraction, Flow (Immunoglobulin G (IgG); [5]): 0.27 mg
Percent Eluted by Fraction, 1M NaCl (Immunoglobulin A (IgA)): 0%
Percent Eluted by Fraction, 2% Acetic Acid (Immunoglobulin A (IgA)): 31%
Percent Eluted by Fraction, 3M NaCl (Immunoglobulin A (IgA)): 0%
Percent Eluted by Fraction, Flow (Immunoglobulin A (IgA)): 69%
Mass Protein per Eluate Fraction, 2% Acetic Acid (Immunoglobulin A (IgA); [5]): 0.09 mg
Mass Protein per Eluate Fraction, Flow (Immunoglobulin A (IgA); [5]): 0.19 mg

Mass Protein per Eluate Fraction, 1M NaCl (A1PI [1]; 4° C.): 0.28 mg
Mass Protein per Eluate Fraction, 2% Ac. Acid (A1PI [1]; 4° C.): 0.46 mg
Mass Protein per Eluate Fraction, 3M NaCl (A1PI [1]; 4° C.): 0.04 mg
Percent Eluted by Fraction, 1M NaCl (A1PI [1]; 4° C.): 36%
Percent Eluted by Fraction, 2% Ac. Acid (A1PI [1]; 4° C.): 60%
Percent Eluted by Fraction, 3M NaCl (A1PI [1]; 4° C.): 5%
Percent Eluted by Fraction, Flow (A1PI [1]; 4° C.): 0%
Mass Protein per Eluate Fraction, 1M NaCl (A1PI [1]; 20° C.): 0.16 mg
Mass Protein per Eluate Fraction, 2% Ac. Acid (A1PI [1]; 20° C.): 0.30 mg
Mass Protein per Eluate Fraction, Flow (A1PI [1]; 20° C.): 0.41 mg
Percent Eluted by Fraction, 1M NaCl (A1PI [1]; 20° C.): 18%
Percent Eluted by Fraction, 2% Ac. Acid (A1PI [1]; 20° C.): 34%
Percent Eluted by Fraction, 3M NaCl (A1PI [1]; 20° C.): 0%
Percent Eluted by Fraction, Flow (A1PI [1]; 20° C.): 48%
Percent Eluted by Fraction, 1M NaCl (A1PI [2]): 5%
Percent Eluted by Fraction, 2% Acetic Acid (A1PI [2]): 81%
Percent Eluted by Fraction, 3M NaCl (A1PI [2]): 0%
Percent Eluted by Fraction, Flow (A1PI [2]): 14%
Mass Protein per Eluate Fraction, 1M NaCl (A1PI [2]): 0.06 mg
Mass Protein per Eluate Fraction, 2% Acetic Acid (A1PI [2]): 0.92 mg
Mass Protein per Eluate Fraction, Flow (A1PI [2]): 0.16 mg
Percent A1PI Eluted by Fraction Based on Absorbance at 280 nm, 1M NaCl (A1PI [3]): 64%
Percent A1PI Eluted by Fraction Based on Absorbance at 280 nm, 2% Acetic Acid (A1PI [3]): 36%
Percent A1PI Eluted by Fraction Based on Absorbance at 280 nm, Flowthrough (A1PI [3]): 0%
Percent A1PI Eluted by Fraction, 1M NaCl (A1PI [3]): 75%
Percent A1PI Eluted by Fraction, 2% Acetic Acid (A1PI [3]): 25%
Percent A1PI Eluted by Fraction, Flowthrough (A1PI [3]): 0%
Percent Eluted by Fraction, 1M NaCl [4]: 0%
Percent Eluted by Fraction, 2% Acetic Acid [4]: 100%
Percent Eluted by Fraction, 3M NaCl [4]: 0%
Percent Eluted by Fraction, Flow [4]: 0%
Mass Protein per Eluate Fraction, 2% Acetic Acid [4]: 0.31 mg
Substance: YKFRFW
Percent Eluted by Fraction, 1M NaCl (Immunoglobulin A (IgA)): 33%
Percent Eluted by Fraction, 2% Acetic Acid (Immunoglobulin A (IgA)): 30%
Percent Eluted by Fraction, 3M NaCl (Immunoglobulin A (IgA)): 0%
Percent Eluted by Fraction, Flow (Immunoglobulin A (IgA)): 37%
Mass Protein per Eluate Fraction, 1M NaCl (Immunoglobulin A (IgA); [5]): 0.11 mg
Mass Protein per Eluate Fraction, 2% Acetic Acid (Immunoglobulin A (IgA); [5]): 0.10 mg
Mass Protein per Eluate Fraction, Flow (Immunoglobulin A (IgA); [5]): 0.13 mg
